This is an account of results in PMC7494997.

B1: yeast-displayed mVISTA E124A (protein)
chain: FKVTTPYSLYVCPEGQNATLTCRILGPVSKGHDVTIYKTWYLSSRGEVQMCKEHRPIRNFTLQHLQHHGSHLKANASHDQPQKHGLELASDHHGNFSITLRNVTPRDSGLYCCLVIELKNHHPAQRFYGSMELQVQAGKGSGSTCMASNEQDSDSITAA
B2: yeast-displayed mVISTA H121A (protein)
chain: FKVTTPYSLYVCPEGQNATLTCRILGPVSKGHDVTIYKTWYLSSRGEVQMCKEHRPIRNFTLQHLQHHGSHLKANASHDQPQKHGLELASDHHGNFSITLRNVTPRDSGLYCCLVIELKNAHPEQRFYGSMELQVQAGKGSGSTCMASNEQDSDSITAA
B3: yeast-displayed mVISTA I36A (protein)
chain: FKVTTPYSLYVCPEGQNATLTCRILGPVSKGHDVTAYKTWYLSSRGEVQMCKEHRPIRNFTLQHLQHHGSHLKANASHDQPQKHGLELASDHHGNFSITLRNVTPRDSGLYCCLVIELKNHHPEQRFYGSMELQVQAGKGSGSTCMASNEQDSDSITAA
B4: yeast-displayed mVISTA K38A (protein)
chain: FKVTTPYSLYVCPEGQNATLTCRILGPVSKGHDVTIYATWYLSSRGEVQMCKEHRPIRNFTLQHLQHHGSHLKANASHDQPQKHGLELASDHHGNFSITLRNVTPRDSGLYCCLVIELKNHHPEQRFYGSMELQVQAGKGSGSTCMASNEQDSDSITAA

Sequence of SG7 (chain, as listed by the source, chain 1 of 2): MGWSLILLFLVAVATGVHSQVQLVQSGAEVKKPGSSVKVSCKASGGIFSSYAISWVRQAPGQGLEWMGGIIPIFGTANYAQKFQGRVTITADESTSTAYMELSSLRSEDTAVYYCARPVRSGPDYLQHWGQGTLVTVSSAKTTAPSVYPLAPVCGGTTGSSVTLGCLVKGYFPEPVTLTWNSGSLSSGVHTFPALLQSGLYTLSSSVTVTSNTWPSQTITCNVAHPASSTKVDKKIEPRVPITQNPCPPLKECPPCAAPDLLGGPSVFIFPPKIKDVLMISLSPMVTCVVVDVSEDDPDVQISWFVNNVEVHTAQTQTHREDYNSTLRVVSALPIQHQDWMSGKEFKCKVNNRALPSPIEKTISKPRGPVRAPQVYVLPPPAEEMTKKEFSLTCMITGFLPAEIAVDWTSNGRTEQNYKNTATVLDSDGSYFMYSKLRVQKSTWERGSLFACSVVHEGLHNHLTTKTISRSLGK
Sequence of SG7 (chain, as listed by the source, chain 2 of 2): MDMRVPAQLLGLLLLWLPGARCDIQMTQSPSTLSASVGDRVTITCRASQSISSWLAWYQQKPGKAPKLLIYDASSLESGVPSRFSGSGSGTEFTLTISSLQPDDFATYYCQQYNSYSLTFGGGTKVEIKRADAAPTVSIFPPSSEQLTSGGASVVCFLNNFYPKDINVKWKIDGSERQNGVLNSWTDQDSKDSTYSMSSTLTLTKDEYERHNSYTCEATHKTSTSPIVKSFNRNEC

This experiment concerns the target SG7. The experiment in a line: flow cytometry on yeast-displayed VISTA. Conditions: chain shown with the change; 4 nM SG7; parent: est. 100; read off a plot. A general note: A flow cytometer gives signals particle by particle.
With B1, the percent of parent is 9 % WT.

On to B2, for which the percent of parent amounted to 1 % WT.

Consider B3, for which the percent of parent is 13 % WT.

As for B4, the percent of parent stood at 63 % WT.
